According to publication PMC11723922, “The TGF-β mimic TGM4 achieves cell specificity through combinatorial surface co-receptor binding” (EMBO Reports, 2024):

Key:
[1] = target: T1, Human CD44 extracellular domain, recombinant (human, UniProt P16070 21-649); assay: ITC; TGM D4-5 fragments with mouse or human CD44 extracellular domain; 25 mM Na2HPO4, 50 mM NaCl, pH 6.0, 35 °C; two datasets globally fit (NITPIC, SEDPHAT); details: both partners purified
T1 construct: CD44, human, extracellular domain; also called hCD44; source: expi293 cells, purified from the conditioned medium

[2] = target: T2, Mouse CD44 extracellular domain, recombinant (mouse, UniProt P15379 23-685); assay: as above; details: both partners purified
T2 construct: CD44, mouse, extracellular domain; also called mCD44; murine CD44; source: expi293 cells, purified from the conditioned medium
T2 sequence (looked up): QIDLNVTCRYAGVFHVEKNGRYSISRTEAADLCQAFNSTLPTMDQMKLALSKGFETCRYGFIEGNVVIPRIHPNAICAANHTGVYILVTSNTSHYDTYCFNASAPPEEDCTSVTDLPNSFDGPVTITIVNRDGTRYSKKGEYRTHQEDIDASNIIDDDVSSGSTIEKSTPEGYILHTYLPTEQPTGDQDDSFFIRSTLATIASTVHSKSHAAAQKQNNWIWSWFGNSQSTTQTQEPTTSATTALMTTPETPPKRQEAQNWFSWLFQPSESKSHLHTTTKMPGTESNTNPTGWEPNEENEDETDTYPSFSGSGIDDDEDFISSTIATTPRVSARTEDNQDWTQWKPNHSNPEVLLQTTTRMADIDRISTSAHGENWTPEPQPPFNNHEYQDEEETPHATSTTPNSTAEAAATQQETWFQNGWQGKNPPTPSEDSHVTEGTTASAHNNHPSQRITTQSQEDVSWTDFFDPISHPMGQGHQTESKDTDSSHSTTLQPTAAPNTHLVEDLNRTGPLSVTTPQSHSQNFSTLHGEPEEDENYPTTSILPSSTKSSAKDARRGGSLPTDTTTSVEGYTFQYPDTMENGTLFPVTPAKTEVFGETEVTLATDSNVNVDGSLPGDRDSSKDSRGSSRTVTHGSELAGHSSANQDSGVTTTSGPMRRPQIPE

T1 sequence (P16070 21-649): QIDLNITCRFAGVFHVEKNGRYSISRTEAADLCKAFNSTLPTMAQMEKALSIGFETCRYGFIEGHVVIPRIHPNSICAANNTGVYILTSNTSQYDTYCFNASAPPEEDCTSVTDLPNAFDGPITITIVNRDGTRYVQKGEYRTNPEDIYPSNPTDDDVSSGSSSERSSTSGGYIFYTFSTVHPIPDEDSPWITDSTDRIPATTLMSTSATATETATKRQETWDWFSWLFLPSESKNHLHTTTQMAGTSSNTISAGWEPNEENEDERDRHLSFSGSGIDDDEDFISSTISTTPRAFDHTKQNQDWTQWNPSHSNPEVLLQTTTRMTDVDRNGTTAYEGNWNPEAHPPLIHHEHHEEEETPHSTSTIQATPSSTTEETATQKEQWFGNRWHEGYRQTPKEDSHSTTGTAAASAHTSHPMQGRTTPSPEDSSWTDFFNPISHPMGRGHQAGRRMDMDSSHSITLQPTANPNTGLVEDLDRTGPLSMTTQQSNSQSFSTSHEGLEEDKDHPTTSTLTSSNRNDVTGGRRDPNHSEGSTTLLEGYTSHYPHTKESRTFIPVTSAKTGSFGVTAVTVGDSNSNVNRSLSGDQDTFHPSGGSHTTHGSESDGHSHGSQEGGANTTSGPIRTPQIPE

B1: TGM1 D4-5, recombinant (domain or fragment)
chain: RCKPLEANESVHYEYFTMTNETDKKKGPPAKVGKSGKYPEHTCVKKVCSKWPYTCSTGGPIFGECIGATWNFTALMECINARGCSSDDLFDKLGFEKVIVRKGEGSDSYKDDFARFYATGSKVIAECGGKTVRLECSNGEWHEPGTKTVHRCTKDGIRTL
Kd [1]: 122 nM | Kd [2]: 30 nM

B2: TGM4 D4-5, recombinant (domain or fragment)
chain: RCKPLETNVSVHYEYFTMTNETGRKEGTPAEVDKGGKYPQHTCVRKFCDKSPYTCSVKGPIFGECLDGQWNFTALDECLNARGCNSDDLFDKLGFEGVMVREEEGSDSYKDDFVRFYATGSKVNAECKGKTVQLECSDGEWHDPGTKTVHRCTKEGIRAL
modifications: biotinylated in the streptavidin pull-downs; Alexa Fluor 488 label in flow cytometry; unlabelled in ITC and as competitor
Kd [1]: 78 nM | Kd [2]: 20 nM
